The assay deals with target antigen-expressing cell line. Kind of assay: Jurkat NFAT-GFP assay, coculture with target cell lines expressing the respective target antigen (summary Table 10A). Format: cell-based, human. Further details: key: The signs +/−, +, 2+ etc. after the name of the cell lines indicate the relative degree of positivity on the Jurkat-NFAT-GFP assay as measured by the % GFP positive cells; +: relative degree of positivity on the Jurkat-NFAT-GFP assay as measured by the % GFP positive cells; 2+: relative degree of positivity on the Jurkat-NFAT-GFP assay as measured by the % GFP positive cells. As to conditions: relative % GFP positive cells; for NFAT-GFP ASSAY Positive Cell lines: NALM6: SIR-expressing Jurkat-NFAT-GFP cells cocultured with NALM6; for NFAT-GFP ASSAY Positive Cell lines: RAJI: SIR-expressing Jurkat-NFAT-GFP cells cocultured with RAJI. The gist of the method:
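Read-out: % GFP+ cells by FACS. SIR-transduced, puromycin-selected Jurkat NFAT-GFP (IL-2 promoter reporter) cocultured ~4–18 h with target line, E:T ~1:2; parental cells as control; graded +/−, +, 2+ relative to parental.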

B1: 010417-H05 (protein)
chain: MALPVTALLLPLALLLHAARPLEGKPIPNPLLGLDSTGSGEDLKNVFPPEVAVFEPSKAEIAHTQKATLVCLATGFYPDHVELSWWVNGKEVHSGVCTDPQPLKEQPALNDSRYCLSSRLRVSATFWQNPRNHFRCQVQFYGLSENDEWTQDRAKPVTQIVSAEAWGRADCGITSASYHQGVLSATILYEILLGKATLYAVLVSALVLMAMVKRKDSRGRAKRSGSGATNFSLLKQAGDVEENPGPTSMALPVTALLLPLALLLHAARPEIVLTQSPDFQSVTPKEKVTITCRASESVDTFGISFMNWFQQKPDQSPKLLIHAASNQGSGVPSRFSGSGSGTDFTLTINSLEAEDAATYYCQQSKEVPFTFGGGTKVEIKGGGGSGGGGSGGGGSEVQLVESGGGLVQPGGSLRLSCAASGFTFSSSWMNWVRQAPGKGLEWVGRIYPGDGDTNYNGKFKGRFTISRDDSKNSLYLQMNSLKTEDTAVYYCARSGFITTVLDFDYWGQGTLVTVSSTREQKLISEEDGSGIQNPDPAVYQLRDSKSSDKSVCLFTDFDSQTNVSQSKDSDVYITDKCVLDMRSMDFKSNSAVAWSNKSDFACANAFNNSIIPEDTFFPSSDVPCDVKLVEKSFETDTNLNFQNLSVIGFRILLLKVAGFNLLMTLRLWSSRAKRSGSGVKQTLNFDLLKLAGDVESNPGPSRGHMTEYKPTVRLATRDDVPRAVRTLAAAFADYPATRHTVDPDRHIERVTELQELFLTRVGLDIGKVWVADDGAAVAVWTTPESVEAGAVFAEIGPRMAELSGSRLAAQQQMEGLLAPHRPKEPAWFLATVGVSPDHQGKGLGSAVVLPGVEAAERAGVPAFLETSAPRNLPFYERLGFTVTADVEVPEGPRTWCMTRKPGA
In the case of B1, the “NFAT-GFP ASSAY Positive Cell lines: NALM6” value was “(+)” and the “NFAT-GFP ASSAY Positive Cell lines: RAJI” value is listed as “RAJI (2+), NALM6”.

B2: 010417-I04 (protein)
chain: MALPVTALLLPLALLLHAARPLEGKPIPNPLLGLDSTGSGEDLKNVFPPEVAVFEPSKAEIAHTQKATLVCLATGFYPDHVELSWWVNGKEVHSGVCTDPQPLKEQPALNDSRYCLSSRLRVSATFWQNPRNHFRCQVQFYGLSENDEWTQDRAKPVTQIVSAEAWGRADCGITSASYHQGVLSATILYEILLGKATLYAVLVSALVLMAMVKRKDSRGRAKRSGSGATNFSLLKQAGDVEENPGPTSMALPVTALLLPLALLLHAARPEIVLTQSPDFQSVTPKEKVTITCRASESVDTFGISFMNWFQQKPDQSPKLLIHAASNQGSGVPSRFSGSGSGTDFTLTINSLEAEDAATYYCQQSKEVPFTFGGGTKVEIKGGGGSGGGGSGGGGSEVQLVESGGGLVQPGGSLRLSCAASGFTFSSSWMNWVRQAPGKGLEWVGRIYPGDGDTNYNGKFKGRFTISRDDSKNSLYLQMNSLKTEDTAVYYCARSGFITTVLDFDYWGQGTLVTVSSTREQKLISEEDLGSGTPFPSLAPPIMLLVDGKQQMVVVCLVLDVAPPGLDSPIWFSAGNGSALDAFTYGPSPATDGTWTNLAHLSLPSEELASWEPLVCHTGPGAEGHSRSTQPMHLSGEASTARTCPQEPLRGTPGGALWLGVLRLLLFKLLLFDLLLTCSCLCDPAGPLPSPATTTRLRALGSHRLHPATETGGREATSSPRPQPRDRRWGDTPPGRKPGSPVRAKRSGSGVKQTLNFDLLKLAGDVESNPGPSRSRGHMTEYKPTVRLATRDDVPRAVRTLAAAFADYPATRHTVDPDRHIERVTELQELFLTRVGLDIGKVWVADDGAAVAVWTTPESVEAGAVFAEIGPRMAELSGSRLAAQQQMEGLLAPHRPKEPAWFLATVGVSPDHQGKGLGSAVVLPGVEAAERAGVPAFLETSAPRNLPFYERLGFTVTADVEVPEGPRTWCMTRKPGA
On to B2, for which the “NFAT-GFP ASSAY Positive Cell lines: NALM6” value was “(+/−)” and the “NFAT-GFP ASSAY Positive Cell lines: RAJI” value is given as “RAJI (+), NALM6”.

B3: 030217-A05 (protein)
chain: MALPVTALLLPLALLLHAARPDEIVLTQSPATLSLSPGERATLSCSASSSVSYMHWYQQKPGQAPRLLIYDTSKLASGIPARFSGSGSGTDFTLTISSLEPEDVAVYYCFQGSVYPFTFGQGTKLEIKRGGGGSGGGGSGGGGSQVQLQESGPGLVKPSQTLSLTCTVSGGSISTSGMGVGWIRQHPGKGLEWIGHIWWDDDKRYNPALKSRVTISVDTSKNQFSLKLSSVTAADTAVYYCARMELWSYYFDYWGQGTLVTVSSLEGKPIPNPLLGLDSTGSGEDLKNVFPPEVAVFEPSKAEIAHTQKATLVCLATGFYPDHVELSWWVNGKEVHSGVCTDPQPLKEQPALNDSRYCLSSRLRVSATFWQNPRNHFRCQVQFYGLSENDEWTQDRAKPVTQIVSAEAWGRADCGITSASYHQGVLSATILYEILLGKATLYAVLVSALVLMAMVKRKDSRGRAKRSGSGATNFSLLKQAGDVEENPGPTSTMALPVTALLLPLALLLHAARPDIQMTQSPSSLSASVGDRVTITCKASQDVGIAVAWYQQKPGKVPKLLIYWASTRHTGVPDRFSGSGSGTDFTLTISSLQPEDVATYYCQQYSSYPYTFGQGTKVEIKGGGGSGGGGSGGGGSEVQLVESGGGLVQPGGSLRLSCAASGFDFSRYWMSWVRQAPGKGLEWIGEINPDSSTINYAPSLKDKFIISRDNAKNSLYLQMNSLRAEDTAVYYCARPDGNYWYFDVWGQGTLVTVSSTREQKLISEEDGSGIQNPDPAVYQLRDSKSSDKSVCLFTDFDSQTNVSQSKDSDVYITDKCVLDMRSMDFKSNSAVAWSNKSDFACANAFNNSIIPEDTFFPSSDVPCDVKLVEKSFETDTNLNFQNLSVIGFRILLLKVAGFNLLMTLRLWSSRAKRSGSGVKQTLNFDLLKLAGDVESNPGPSRGHMTEYKPTVRLATRDDVPRAVRTLAAAFADYPATRHTVDPDRHIERVTELQELFLTRVGLDIGKVWVADDGAAVAVWTTPESVEAGAVFAEIGPRMAELSGSRLAAQQQMEGLLAPHRPKEPAWFLATVGVSPDHQGKGLGSAVVLPGVEAAERAGVPAFLETSAPRNLPFYERLGFTVTADVEVPEGPRTWCMTRKPGA
Regarding B3, the “NFAT-GFP ASSAY Positive Cell lines: NALM6” value is on record as “(+/−), L363 (+/−),” and the “NFAT-GFP ASSAY Positive Cell lines: RAJI” value was “RAJI (+), NALM6”. For the same molecule, the “NFAT-GFP ASSAY Positive Cell lines: L363” value (SIR-expressing Jurkat-NFAT-GFP cells cocultured with L363) was “(+/−), L363 (+/−),”. In addition, the “NFAT-GFP ASSAY Positive Cell lines: U266” value (SIR-expressing Jurkat-NFAT-GFP cells cocultured with U266) is “U266 (+/−)”.

B4: 010417-C03 (protein)
chain: MALPVTALLLPLALLLHAARPLEGKPIPNPLLGLDSTGSGEDLKNVFPPEVAVFEPSKAEIAHTQKATLVCLATGFYPDHVELSWWVNGKEVHSGVCTDPQPLKEQPALNDSRYCLSSRLRVSATFWQNPRNHFRCQVQFYGLSENDEWTQDRAKPVTQIVSAEAWGRADCGITSASYHQGVLSATILYEILLGKATLYAVLVSALVLMAMVKRKDSRGRAKRSGSGATNFSLLKQAGDVEENPGPTSTMALPVTALLLPLALLLHAARPDEIVLTQSPATLSLSPGERATLSCSASSSVSYMHWYQQKPGQAPRLLIYDTSKLASGIPARFSGSGSGTDFTLTISSLEPEDVAVYYCFQGSVYPFTFGQGTKLEIKRGGGGSGGGGSGGGGSQVQLQESGPGLVKPSQTLSLTCTVSGGSISTSGMGVGWIRQHPGKGLEWIGHIWWDDDKRYNPALKSRVTISVDTSKNQFSLKLSSVTAADTAVYYCARMELWSYYFDYWGQGTLVTVSSTREAAAKDIQMTQSPSSLSASVGDRVTITCKASQDVGIAVAWYQQKPGKVPKLLIYWASTRHTGVPDRFSGSGSGTDFTLTISSLQPEDVATYYCQQYSSYPYTFGQGTKVEIKGGGGSGGGGSGGGGSEVQLVESGGGLVQPGGSLRLSCAASGFDFSRYWMSWVRQAPGKGLEWIGEINPDSSTINYAPSLKDKFIISRDNAKNSLYLQMNSLRAEDTAVYYCARPDGNYWYFDVWGQGTLVTVSSTREQKLISEEDGSGIQNPDPAVYQLRDSKSSDKSVCLFTDFDSQTNVSQSKDSDVYITDKCVLDMRSMDFKSNSAVAWSNKSDFACANAFNNSIIPEDTFFPSSDVPCDVKLVEKSFETDTNLNFQNLSVIGFRILLLKVAGFNLLMTLRLWSSRAKRSGSGVKQTLNFDLLKLAGDVESNPGPSRGHMTEYKPTVRLATRDDVPRAVRTLAAAFADYPATRHTVDPDRHIERVTELQELFLTRVGLDIGKVWVADDGAAVAVWTTPESVEAGAVFAEIGPRMAELSGSRLAAQQQMEGLLAPHRPKEPAWFLATVGVSPDHQGKGLGSAVVLPGVEAAERAGVPAFLETSAPRNLPFYERLGFTVTADVEVPEGPRTWCMTRKPGA
As for B4, the “NFAT-GFP ASSAY Positive Cell lines: NALM6” value is “(+/−)” and the “NFAT-GFP ASSAY Positive Cell lines: RAJI” value is given as “RAJI (+), NALM6”.

B5: 010417-L03 (protein)
chain: MALPVTALLLPLALLLHAARPLEQKLISEEDLGSGDRPDPAVYQLRDSKSSDKSVCLFTDFDSQTNVSQSKDSDVYITDKCVLDMRSMDFKSNSAVAWSNKSDFACANAFNNSIIPEDTFFPSPESSCDVKLVEKSFETDTNLNFQNLSVIGFRILLLKVAGFNLLMTLRLWSSSSRAKRSGSGVKQTLNFDLLKLAGDVESNPGPTSMALPVTALLLPLALLLHAARPEIVLTQSPDFQSVTPKEKVTITCRASESVDTFGISFMNWFQQKPDQSPKLLIHAASNQGSGVPSRFSGSGSGTDFTLTINSLEAEDAATYYCQQSKEVPFTFGGGTKVEIKGGGGSGGGGSGGGGSEVQLVESGGGLVQPGGSLRLSCAASGFTFSSSWMNWVRQAPGKGLEWVGRIYPGDGDTNYNGKFKGRFTISRDDSKNSLYLQMNSLKTEDTAVYYCARSGFITTVLDFDYWGQGTLVTVSSTRGKPIPNPLLGLDSTGSGEDLKNVFPPEVAVFEPSEAEISHTQKATLVCLATGFYPDHVELSWWVNGKEVHSGVCTDPQPLKEQPALNDSRYCLSSRLRVSATFWQNPRNHFRCQVQFYGLSENDEWTQDRAKPVTQIVSAEAWGRADCGFTSESYQQGVLSATILYEILLGKATLYAVLVSALVLMAMVKRKDSRGRAKRSGSGATNFSLLKQAGDVEENPGPSRGHMTEYKPTVRLATRDDVPRAVRTLAAAFADYPATRHTVDPDRHIERVTELQELFLTRVGLDIGKVWVADDGAAVAVWTTPESVEAGAVFAEIGPRMAELSGSRLAAQQQMEGLLAPHRPKEPAWFLATVGVSPDHQGKGLGSAVVLPGVEAAERAGVPAFLETSAPRNLPFYERLGFTVTADVEVPEGPRTWCMTRKPGA
Turning to B5, the “NFAT-GFP ASSAY Positive Cell lines: NALM6” value is reported as “RAJI (+), NALM6 (+)” and the “NFAT-GFP ASSAY Positive Cell lines: RAJI” value is on record as “RAJI (+), NALM6 (+)”.

B6: 011317-A06 (protein)
chain: B5 chain
For the molecule B6, the “NFAT-GFP ASSAY Positive Cell lines: NALM6” value is on record as “(2+)” and the “NFAT-GFP ASSAY Positive Cell lines: RAJI” value is “RAJI (2+), NALM6”.

These data come from US12269859B2, “Synthetic immune receptors and methods of use thereof” (Angeles Therapeutics, Inc., priority 2016, dated 2025).
